According to PMC6687201, “Atg11 tethers Atg9 vesicles to initiate selective autophagy” (PLoS Biology, 2019):

B1: recombinant purified Atg11 (Atg11-His6) (natural protein, yeast)
chain: GPMADADEYSTAPTQQEITPLQTTATIINAISGECITTNVDFFVSLDKFKQFIARKWKIPPDQLLILLPYGNKLKPSMFKELLINRSFTLNDFYVYDRRLFSLVSKPTPTNLLTSKDSNPMNSPNSNDLTETLEYLIKNSHISQYQGSDTIMIKPMPSPLEDADVDLSRLNYHSVTSLLTTNLGWLSALEIDVHYFKSLIPDIIAHIKRIFDGLTVCSQYLKLYCFDVESLYNSNVQFLNQLVDNGMTSKWEKCFNDTLSKLTALEGDSLQKFINIESLLENEKSVKILNHSINGKLNKIKREIDENASFRDIITVNIDRLRQMFTPNESKFELEDQMAESFEVLVSEMRTRSRNVLDKEEEEFNSQEFLKSMNVMLEKDKKESVKTLFTISQALYSQIGELIDLKKSLQKHAVAILGNIAFTQMEILGIKRLLLNECNKDLELYKKYEVEFAQVEDLPLIYGLYLIEKYRRLSWFQQILSFISNFNQDLELFKQNELRTRNKWVKNFGSIATVFCEDLLSSSDFKRLNEYHSHTSPPNEDEEDENENSIANYRQDLVKVSQAIDNYMTQIKETDVSEPIIDLLSKTLFETKRFHIIYSNFKNNNNNSSNGNSISPEGSIALKSDDVVKGYKTRIKKLESLLHEFQYSDIGHWPQGVLNTHLKPFRGSATSINKKKFLGASVLLEPANISEVNIDSVSQANNHQIQELESNVDDLLHQLQLLKEENNRKSMQISEMGKKISDLEVEKTAYRETLTNLNQELARLTNEEQSHRTEIFTLNASFKKQLNDIISQDNEKIEKLTGDYDDVSKSRERLQMDLDESNKKHEQEVNLLKADIERLGKQIVTSEKSYAETNSSSMEKGEKFETIPLAEDPGRENQISAYTQTLQDRIFDIISTNIFILENIGLLLTFDNNNNIQIRRVKGLKKGTAQSNILDESTQMLDAHDNSLIKSPVFQKLKDEYELIKSVANGSEKDTQQSIFLGNITQLYDNKLYEVAVIRRFKDIETLAKKLTKENKIKRTLLERFQREKVTLRNFQIGDLALFLPTRENVNSVGSMSSSTSSLSSSFSSVDLSTPPPLDAMSIQSSPSVIHSNVINQASISGRDKNKLMRPWAAFTAFEESTRYFLKDEKGLTKGKEWFVGRIVTLEHFVADSPSNNPFRLPKGSVWFQVTAVVVSYQGV
modifications: Atto565 label in the GUV experiments
notes: N-terminal residual glycine-proline from PreScission protease digestion; Atg11, yeast; expressed from pCoofy37-Atg11; measured molecular weight 136 kDa; also called His-tagged Atg11; Atg11^Atto565; source: E. coli BL21 (DE3), coexpressed with chaperones from pG-KJE8, purified (Ni-NTA, PreScission digestion, gel filtration); not shown: His6, C-terminal, kept
B2: Atg32^SE (Atg32^1-376 with the phosphomimetic mutation S114E) (domain or fragment, yeast, UniProt P40458 1-376, looked up)
chain: MVLEYQQREGKGSSSKSMPPDSSSTTIHTCSEAQTGEDKGLLDPHLSVLELLSKTGHSPSPMGQNLVTSIDISGNHNVNDSISGSWQAIQPLDLGASFIPERCSSQTTNGSILESSDTSEEEQELLQAPAADIINIIKQGQEGANVVSPSHPFKQLQKIISLPLPGKEKTPFNEQDDDGDEDEAFEEDSVTITKSLTSSTNSFVMPKLSLTQKNPVFRLLILGRTGSSFYQSIPKEYQSLFELPKYHDSATFPQYTGIVIIFQELREMVSLLNRIVQYSQGKPVIPICQPGQVIQVKNVLKSFLRNKLVKLLFPPVVVTNKRDLKKMFQRLQDLSLEYGEDVNEEDNDDEAIHTKSRSYCRNKKAENSKKKSPKSN
modifications: PacificBlue label in the GUV experiment; Sulfo-LC-SDA conjugated to primary amines in the cross-linking experiment
notes: Atg32, mitochondrial cargo receptor, yeast; N-terminal cytoplasmic domain, residues 1-376; also called Atg32^1-376,SE; Sulfo-LC-Atg32^SE

Tests used:
[1] = biological target: T1, Atg9^core reconstituted in proteoliposomes (yeast, UniProt Q12142 281-779); assay: co-floatation with proteoliposomes; Atg9-PLs mixed with one interaction partner in a Nycodenz step gradient, ultracentrifugation, floated fraction on SDS-PAGE; SUVs lacking Atg9^core as control; settings: both partners purified
T1 construct: Atg9 core, yeast; Liposomes: 20 mol% cholesterol, 10 mol% POPE, 60 mol% POPC, 10 mol% POPS; protein:lipid 1:200; also called Atg9-PLs; Atg9 vesicles; source: reconstituted in liposomes by rapid dilution
T1 sequence (looked up): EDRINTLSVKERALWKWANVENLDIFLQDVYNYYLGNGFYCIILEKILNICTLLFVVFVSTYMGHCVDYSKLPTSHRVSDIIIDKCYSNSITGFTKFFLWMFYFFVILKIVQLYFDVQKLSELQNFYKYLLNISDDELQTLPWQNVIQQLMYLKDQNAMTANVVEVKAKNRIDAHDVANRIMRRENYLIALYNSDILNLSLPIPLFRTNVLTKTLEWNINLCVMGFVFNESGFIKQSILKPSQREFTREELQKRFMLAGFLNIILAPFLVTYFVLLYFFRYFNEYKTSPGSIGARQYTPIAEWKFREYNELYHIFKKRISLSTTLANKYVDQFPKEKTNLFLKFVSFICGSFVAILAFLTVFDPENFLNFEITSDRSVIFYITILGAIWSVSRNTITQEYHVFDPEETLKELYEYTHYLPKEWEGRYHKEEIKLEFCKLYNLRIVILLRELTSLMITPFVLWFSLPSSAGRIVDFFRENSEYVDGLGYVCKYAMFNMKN

[2] = biological target: the molecule itself; assay: AUC; sedimentation velocity of purified Atg11-His6, analysed with SEDFIT; also at 1.63 mg/ml and 0.15 mg/ml
[3] = biological target: B1; assay: cross-linking; Sulfo-LC-SDA (spacer arm 12.5 Å) conjugated to primary amines of Atg32^SE, mixed with Atg11, 365 nm UV light for up to 15 min, SDS-PAGE; settings: both partners purified

Binder	stoichiometry N [1]	stoichiometry N [2]	binding result [3]
B1	1	2	–
B2	–	–	binds
